Source: US20180086837A1 (Ablynx, published 2018)
Values joined by “and” are separate entries in the source; they are usually repeats but may differ in a detail not shown here. Equal entries are not always repeated.

How the values were obtained:
[1] = target: T1, human CD4 expressed on cells (human, UniProt P01730 26-458); assay: cell-based or functional assay
[2] = target: T1, human CD4 expressed on cells; assay: flow cytometry, Jurkat E6-1 cells (CXCR4+/CD4low); Jurkat E6-1 cells (CXCR4+/CD4low), average of 3 experiments
[3] = target: T1, human CD4 expressed on cells; assay: cell-based or functional assay; remark: listed apart in the source
[4] = target: T1, human CD4 expressed on cells; assay: flow cytometry, MOLM-13 cells, anti-flag detection
[5] = target: T1, human CD4 expressed on cells; assay: cell-based or functional assay; remark: listed apart in the source
[6] = target: T1, human CD4 expressed on cells; assay: flow cytometry, THP-1 cells
[7] = target: T1, human CD4 expressed on cells; assay: cell-based or functional assay; remark: listed apart in the source
cynomolgus CD4 = target: T2, cynomolgus CD4 (cynomolgus, UniProt P79185 26-458); assay: flow cytometry on the cynomolgus CD4+ T cell line HSC-F, anti-Flag + goat anti-mouse-PE
T2 construct: whole, on cells; also called cyno CD4
T2 sequence (P79185 26-458): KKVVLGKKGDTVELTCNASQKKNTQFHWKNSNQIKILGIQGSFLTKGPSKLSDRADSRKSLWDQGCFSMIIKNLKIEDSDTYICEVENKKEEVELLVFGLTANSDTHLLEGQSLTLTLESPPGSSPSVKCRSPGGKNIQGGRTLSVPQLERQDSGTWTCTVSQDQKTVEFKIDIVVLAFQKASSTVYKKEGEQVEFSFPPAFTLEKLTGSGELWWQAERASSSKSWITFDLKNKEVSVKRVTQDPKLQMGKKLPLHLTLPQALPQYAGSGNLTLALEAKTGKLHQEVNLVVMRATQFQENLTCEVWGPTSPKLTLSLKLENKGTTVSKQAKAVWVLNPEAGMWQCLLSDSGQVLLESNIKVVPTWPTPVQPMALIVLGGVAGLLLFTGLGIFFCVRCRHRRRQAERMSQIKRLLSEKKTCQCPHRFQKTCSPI

[8] = target: T1, human CD4 expressed on cells; assay: flow cytometry, THP-1 cells, anti-flag detection
human CXCR4 [9] = target: T3, human CXCR4 (human, UniProt P61073 1-352); assay: ELISA on coated hCXCR4 lipoparticles versus null lipoparticles, anti-c-myc + anti-mouse-HRP
T3 construct: also called hCXCR4
T3 sequence (P61073 whole entry): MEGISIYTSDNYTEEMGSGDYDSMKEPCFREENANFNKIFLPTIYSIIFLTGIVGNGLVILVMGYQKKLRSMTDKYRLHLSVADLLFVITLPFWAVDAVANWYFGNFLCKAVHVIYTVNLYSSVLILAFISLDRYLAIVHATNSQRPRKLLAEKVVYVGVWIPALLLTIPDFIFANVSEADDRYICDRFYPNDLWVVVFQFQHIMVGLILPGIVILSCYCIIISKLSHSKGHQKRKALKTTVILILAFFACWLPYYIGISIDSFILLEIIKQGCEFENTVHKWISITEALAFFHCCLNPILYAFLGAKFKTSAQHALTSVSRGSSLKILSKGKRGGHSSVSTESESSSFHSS

[10] = target: T1, human CD4 expressed on cells; assay: cell-based or functional assay; remark: listed apart in the source
[11] = target: T1, human CD4 expressed on cells; assay: flow cytometry, MOLM-13 cells (CXCR4+/CD4+)
[12] = target: T1, human CD4 expressed on cells; assay: cell-based or functional assay; remark: listed apart in the source
[13] = target: T1, human CD4 expressed on cells; assay: flow cytometry, Jurkat cells
[14] = target: T1, human CD4 expressed on cells; assay: cell-based or functional assay; remark: listed apart in the source
[15] = target: T1, human CD4 expressed on cells; assay: flow cytometry, primary human T cells, anti-flag detection
[16] = target: T1, human CD4 expressed on cells; assay: cell-based or functional assay; remark: listed apart in the source
human CXCR4 [17] = target: T3, human CXCR4; assay: cell-based or functional assay
human CXCR4 [18] = target: T3, human CXCR4; assay: [125I]-SDF-1 displacement, HEK293-CXCR4 membrane extracts
human CXCR4 [19] = target: T3, human CXCR4; assay: [125I]-SDF-1 displacement, HEK293-CXCR4 membrane extracts, n = 3
human CXCR4 [20] = target: T3, human CXCR4; assay: inhibition of 12G5 (competitor, 10 nM PE-labelled) binding, THP-1 cells
human CXCR4 [21] = target: T3, human CXCR4; assay: cell-based or functional assay; remark: listed apart in the source
human CXCR4 [22] = target: T3, human CXCR4; assay: cell-based or functional assay; remark: listed apart in the source
human CXCR4 [23] = target: T3, human CXCR4; assay: cell-based or functional assay; remark: listed apart in the source
human CXCR4 [24] = target: T3, human CXCR4; assay: competition with 12G5 (competitor, 1 nM), Jurkat cells, flow cytometry
human CXCR4 [25] = target: T3, human CXCR4; assay: inhibition of 12G5 (competitor, 10 nM PE-labelled) binding, Jurkat cells
human CXCR4 [26] = target: T3, human CXCR4; assay: cell-based or functional assay; remark: listed apart in the source
human CXCR4 [27] = target: T3, human CXCR4; assay: inhibition of 12G5 (competitor, 10 nM PE-labelled) binding, SUPT-1 cells
human CXCR4 [28] = target: T3, human CXCR4; assay: cell-based or functional assay; remark: listed apart in the source
human CXCR4 [29] = target: T3, human CXCR4; assay: flow cytometry, MOLM-13 cells (CXCR4+/CD4+)
human CXCR4 [30] = target: T3, human CXCR4; assay: flow cytometry, Jurkat E6-1 cells (CXCR4+/CD4low)
human CXCR4 [31] = target: T3, human CXCR4; assay: cell-based or functional assay; remark: listed apart in the source
human CXCR4 [32] = target: T3, human CXCR4; assay: cell-based or functional assay; remark: listed apart in the source
human CXCR4 [33] = target: T3, human CXCR4; assay: SDF-1^AF647 displacement, SUPT-1 cells, flow cytometry, n = 3
human CXCR4 [34] = target: T3, human CXCR4; assay: cell-based or functional assay; remark: listed apart in the source
human CXCR4 [35] = target: T3, human CXCR4; assay: flow cytometry, THP-1 cells (double-positive)
human CXCR4 [36] = target: T3, human CXCR4; assay: cell-based or functional assay; remark: listed apart in the source

B1: Nanobody 03F11 (VHH)
VHH: EVQLVESGGGSVQPGGSLTLSCGTSGRTFNVMGWFRQAPGKEREFVAAVRWSSTGIYYTQYADSVKSRFTISRDNAKNTVYLEMNSLKPEDTAVYYCAADTYNSNPARWDGYDFRGQGTQVTVSS
notes: Monovalent anti-human CD4 Nanobody; also called CD4 3F11; anti-CD4 Nanobody 3F11; not shown: C-terminal myc-His6 tag (E. coli) or FLAG3-His6 tag (Pichia)
In the case of B1, the “IC50, MT-4, NL4.3 2G12 res.” value [1] is reported as 23.3 nM, the “IC50, MT-4, NL4.3 3F11 res.” value [1] is reported as over 6700 nM and the “IC50, MT-4, NL4.3 281F12 res.” value [1] is reported as over 6700 nM. For the same binder, the “IC50, MT-4, NL4.3 AMD-3100 res.” value [1] was 22.7 nM, the “IC50, MT-4, NL4.3 CXCL-12 res.” value [1] was 153 nM and the “IC50, MT-4, NL4.3 wt” value [1] was 34.7 nM. The “IC50, PBMC, NL4.3 3F11 res.” value [1] was over 6700 nM, the “IC50, PBMC, NL4.3 281F12 res.” value [1] was over 6700 nM and the “IC50, PBMC, NL4.3 WT” value [1] was 500 nM. The EC50 [2] was 1.4 nM, the “IC50, X4 HIV-1 NL4.3 replication in MT-4 cells” value [3] was 0.52 µg/mL and the EC50 [4] was 0.6 nM. For the same binder, the “IC50, HIV-1 neutralization, MT-4 + NL4.3” value [5] was 34.7 nM, the EC50 [6] was 0.5 nM and the “IC50, TZM-bl, DJ259 (R5)” value [7] was 169 nM. For the same binder, the “IC50, TZM-bl, NL4.3 3F11 res” value [7] was over 6700 nM, the “IC50, TZM-bl, NL4.3 281F12 res” value [7] was over 6700 nM and the “IC50, TZM-bl, NL4.3 WT (X4)” value [7] was 131 nM. For the same binder, the “IC50, TZM-bl, SM145 (R5)” value [7] was 8.33 nM, the binding result (cynomolgus CD4) was “binds” and the EC50 [8] was 1 nM. For the same binder, the binding result (human CXCR4 [9]) was “no binding (tested: 100 nM)”, the “IC50, MT-4, HE (R5/X4)” value [10] was 10 nM and the “IC50, MT-4, HIV-2 ROD (R5/X4)” value [10] was 22.7 nM. For the same binder, the “IC50, MT-4, NL4.3 (X4)” value [10] was 34.7 nM, the “IC50, PBMC, BaL (R5)” value [10] was 610 nM and the “IC50, PBMC, DJ259 (R5)” value [10] was 31 nM. The “IC50, PBMC, HE (R5/X4)” value [10] was over 1700 nM, the “IC50, PBMC, NL4.3 (X4)” value [10] was 500 nM and the “IC50, PBMC, SM145 (R5)” value [10] was 27 nM. For the same binder, the EC50 [11] was 0.7 nM, the “IC50, syncytia formation, SupT1 + HUT-78/IIIb” value [12] was 4600 nM and the “IC50, syncytia formation, SupT1 + HUT-78/NL4.3” value [12] was 2800 nM. For the same binder, the EC50 [13] was 1.1 nM, the “IC50, MT-4 + NL4.3 (X4)” value [14] was 35.3 nM and the “IC50, PBMC + BaL (R5)” value [14] was 610 nM. The “IC50, PBMC + NL4.3 (X4)” value [14] was 580 nM, the “IC50, U87 + NL4.3 (X4)” value [14] was over 1330 nM and the EC50 [15] was 0.76 nM. The “IC50, HIV1 infectivity, X4 NL4.3 in MT-4 cells” value [16] was 60.7 nM.

B2: Nanobody 281F12 (VHH)
VHH: EVQLVESGGGLVQAGDSLRLSCAASGRAFSRYAMGWFRQAPGKEREFVAAIGWGPSKTNYADSVKGRFTISRDNAKNTVYLQMNTLKPEDTAVYSCAAKFVNTDSTWSRSEMYTYWGQGTQVTVSS
notes: also called CXCR4 281F12; anti-CXCR4 Nanobody 281F12; not shown: C-terminal c-myc-His6 tag (E. coli) or FLAG3-His6 tag (Pichia)
In the case of B2, the “IC50, MT-4, NL4.3 2G12 res.” value (human CXCR4 [17]) is reported as 17.3 nM, the “IC50, MT-4, NL4.3 3F11 res.” value (human CXCR4 [17]) is reported as 87.3 nM and the “IC50, MT-4, NL4.3 281F12 res.” value (human CXCR4 [17]) is reported as 2330 nM. For the same binder, the “IC50, MT-4, NL4.3 AMD-3100 res.” value (human CXCR4 [17]) was over 1700 nM, the “IC50, MT-4, NL4.3 CXCL-12 res.” value (human CXCR4 [17]) was 220 nM and the “IC50, MT-4, NL4.3 wt” value (human CXCR4 [17]) was 22.7 nM. The “IC50, PBMC, NL4.3 3F11 res.” value (human CXCR4 [17]) was 120 nM, the “IC50, PBMC, NL4.3 281F12 res.” value (human CXCR4 [17]) was 310 nM and the “IC50, PBMC, NL4.3 WT” value (human CXCR4 [17]) was 28 nM. For the same binder, the Ki (human CXCR4 [18]) was 27 nM and 26 nM, the pKi (human CXCR4 [19]) was 7.57 and the IC50 (human CXCR4 [20]) was 49.3 nM. For the same binder, the “IC50, dual-tropic R5/X4 HIV-1 HE in PBMCs” value (human CXCR4 [21]) was 267 nM, the “average IC50, HIV-1 NL4.3 replication in MT-4 cells” value (human CXCR4 [21]) was 0.34 µg/mL and the “IC50, TZM-bl, DJ259 (R5)” value (human CXCR4 [22]) was over 6700 nM. For the same binder, the “IC50, TZM-bl, NL4.3 3F11 res” value (human CXCR4 [22]) was 45.6 nM, the “IC50, TZM-bl, NL4.3 281F12 res” value (human CXCR4 [22]) was 366 nM and the “IC50, TZM-bl, NL4.3 WT (X4)” value (human CXCR4 [22]) was 23.5 nM. For the same binder, the “IC50, TZM-bl, SM145 (R5)” value (human CXCR4 [22]) was over 6700 nM, the “IC50, HIV-1 CM237 (clade B) infectivity in PBMC” value (human CXCR4 [23]) was 16 nM and the “IC50, HIV-1 NL4.3 (X4) infectivity in PBMC” value (human CXCR4 [23]) was 14 nM. The “IC50, HIV-1 UG270 (clade D) infectivity in PBMC” value (human CXCR4 [23]) was 12 nM, the “IC90, HIV-1 CM237 (clade B) infectivity in PBMC” value (human CXCR4 [23]) was 49 nM and the “IC90, HIV-1 NL4.3 (X4) infectivity in PBMC” value (human CXCR4 [23]) was 57 nM. The “IC90, HIV-1 UG270 (clade D) infectivity in PBMC” value (human CXCR4 [23]) was 2.4 nM, the IC50 (human CXCR4 [24]) was 13 nM and the IC50 (human CXCR4 [25]) was 13.7 nM. For the same binder, the “IC50, MT-4, HE (R5/X4)” value (human CXCR4 [26]) was 10 nM, the “IC50, MT-4, HIV-2 ROD (R5/X4)” value (human CXCR4 [26]) was 86.7 nM and the “IC50, MT-4, NL4.3 (X4)” value (human CXCR4 [26]) was 22.7 nM. The “IC50, PBMC, BaL (R5)” value (human CXCR4 [26]) was over 1700 nM, the “IC50, PBMC, DJ259 (R5)” value (human CXCR4 [26]) was over 1700 nM and the “IC50, PBMC, HE (R5/X4)” value (human CXCR4 [26]) was 350 nM. The “IC50, PBMC, NL4.3 (X4)” value (human CXCR4 [26]) was 47 nM, the IC50 (human CXCR4 [27]) was 51.3 nM and the “IC50, SDF-1 induced Ca2+ signaling, U87-CD4-CXCR4 cells” value (human CXCR4 [28]) was 66.7 nM. For the same binder, the EC50 (human CXCR4 [29]) was 5.2 nM, the EC50 (human CXCR4 [30]) was 7 nM and the “IC50, inhibition of SDF-1a-mediated chemotaxis, Jurkat E6-1 cells” value (human CXCR4 [31]) was 84.2 nM. The “IC50, inhibition of SDF-1a-mediated chemotaxis, MOLM-13 cells” value (human CXCR4 [31]) was 86 nM, the “IC50, syncytia formation, SupT1 + HUT-78/IIIb” value (human CXCR4 [32]) was 1800 nM and the “IC50, syncytia formation, SupT1 + HUT-78/NL4.3” value (human CXCR4 [32]) was 3600 nM. The IC50 (human CXCR4 [33]) was 6.3 nM, the “IC50, MT-4 + NL4.3 (X4)” value (human CXCR4 [34]) was 22.9 nM and the “IC50, PBMC + BaL (R5)” value (human CXCR4 [34]) was over 1670 nM. The “IC50, PBMC + NL4.3 (X4)” value (human CXCR4 [34]) was 27.7 nM, the “IC50, U87 + NL4.3 (X4)” value (human CXCR4 [34]) was over 6670 nM and the EC50 (human CXCR4 [35]) was 3.1 nM. For the same binder, the “IC50, HIV1 infectivity, X4 NL4.3 in MT-4 cells” value (human CXCR4 [36]) was 59.4 nM.
